Substitutions are numbered along the chain they refer to. One block for each binder: values may come before it.
How the values were obtained:
[1] = target: T1, KW27-2 (human CD39 mutant, C-terminal EGFP) (human, UniProt P49961 1-510); test: FACS, mutant-EGFP on HEK293F cells
T1 construct: expressed on HEK293F cells; not shown: C-terminal EGFP fusion (vector pCMV3-GFPSpark)
T1 chain: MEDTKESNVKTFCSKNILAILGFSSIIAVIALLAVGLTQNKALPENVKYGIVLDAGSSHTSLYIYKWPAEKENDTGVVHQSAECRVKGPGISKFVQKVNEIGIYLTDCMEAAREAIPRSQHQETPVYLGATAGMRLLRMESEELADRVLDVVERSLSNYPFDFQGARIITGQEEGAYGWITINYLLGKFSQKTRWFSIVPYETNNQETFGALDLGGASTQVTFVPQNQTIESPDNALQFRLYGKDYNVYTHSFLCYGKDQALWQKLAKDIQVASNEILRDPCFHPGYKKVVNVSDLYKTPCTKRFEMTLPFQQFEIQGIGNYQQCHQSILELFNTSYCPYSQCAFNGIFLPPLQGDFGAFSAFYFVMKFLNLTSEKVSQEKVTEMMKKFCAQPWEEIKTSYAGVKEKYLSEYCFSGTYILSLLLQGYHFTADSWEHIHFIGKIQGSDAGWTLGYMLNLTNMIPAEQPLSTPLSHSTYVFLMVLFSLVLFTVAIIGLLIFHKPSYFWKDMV
In short: (§1)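 HEK293F cells were transfected with human CD39 mutants carrying C-terminal GFP and used 3 days later. Antibodies were titrated from 100 nM (3-fold, 11 points) and detected by FACS with AlexaFluor647 anti-hIgG. Relative binding was AlexaFluor647 intensity divided by GFP intensity.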

ENTPD2 protein = target: T2, ENTPD2 protein (Homo sapiens (Human), UniProt Q9Y5L3 29-462); test: ELISA on coated ENTPD2 protein, anti-hIgG-HRP, OD450
T2 construct: also called CD39L1; ENTPDase 2
T2 sequence: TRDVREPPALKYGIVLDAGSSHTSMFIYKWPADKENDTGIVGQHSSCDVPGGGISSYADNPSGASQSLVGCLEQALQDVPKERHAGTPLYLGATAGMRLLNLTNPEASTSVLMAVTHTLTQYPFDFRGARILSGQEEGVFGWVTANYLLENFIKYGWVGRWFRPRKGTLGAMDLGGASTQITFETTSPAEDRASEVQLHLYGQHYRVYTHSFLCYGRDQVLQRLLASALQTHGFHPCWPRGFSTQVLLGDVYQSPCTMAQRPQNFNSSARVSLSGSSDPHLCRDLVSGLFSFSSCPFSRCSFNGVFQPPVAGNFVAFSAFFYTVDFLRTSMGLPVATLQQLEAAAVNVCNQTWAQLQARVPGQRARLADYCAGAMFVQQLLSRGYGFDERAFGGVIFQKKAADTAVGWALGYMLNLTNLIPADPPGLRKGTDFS
Method: Binding specificity of the purified humanized antibody hu23.H5L5 against ENTPDase family members was detected by ELISA assay. Briefly, ENTPD1 (i.e. CD39) and ENTPD 2/3/5/6 proteins were coated on 96-well ELISA plates at 4° C. overnight, next day the ELISA plates were washed and blocked using blocking buffer (1% BSA in PBS with 0.05% Tween20) 200 μL/well for 2 hours. Then hu23.H5L5 gradients were duplicated into the wells and stained with anti-hIgG-HRP. After plate washing, the plates were developed with TMB substrate and stopped by 2N HCl. The OD450 were recorded using plate reader and platted by Graphpad Prism.

[2] = target: T3, KW27-20 (human CD39 mutant, C-terminal EGFP) (human, UniProt P49961 1-510); test: FACS, mutant-EGFP on HEK293F cells
T3 construct: expressed on HEK293F cells; not shown: C-terminal EGFP fusion (vector pCMV3-GFPSpark)
T3 chain: T1 chain with S81V, A82E, A111R, A115V, R138A, M139A, E142K
In short: as §1

[3] = target: T4, human CD39 (protein; form not stated) (human, UniProt P49961 38-478, limits assumed); test: Octet (BLI)
T4 construct: also called ENTPD1; ENTPDase 1
T4 sequence: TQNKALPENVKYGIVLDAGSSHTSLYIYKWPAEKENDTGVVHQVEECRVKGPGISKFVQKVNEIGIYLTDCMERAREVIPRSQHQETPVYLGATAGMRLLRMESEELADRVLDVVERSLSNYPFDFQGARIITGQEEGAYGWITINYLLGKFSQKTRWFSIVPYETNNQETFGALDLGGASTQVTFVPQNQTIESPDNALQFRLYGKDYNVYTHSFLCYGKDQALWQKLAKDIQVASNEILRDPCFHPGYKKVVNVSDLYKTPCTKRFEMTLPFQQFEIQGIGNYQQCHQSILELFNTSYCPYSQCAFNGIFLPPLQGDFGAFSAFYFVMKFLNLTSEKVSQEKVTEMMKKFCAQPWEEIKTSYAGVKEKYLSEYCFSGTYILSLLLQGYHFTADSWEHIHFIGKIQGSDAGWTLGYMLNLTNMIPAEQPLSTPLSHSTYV

B1: c35 (antibody, V domains shown)
VH: EVRLQQSGAELVKPGASVKLSCTASGFNIEDTYVHWMKQRPEQGLEWIGRIDPAIDNSKYDPKFQGKATITAVSSSNTAYLQLSSLTSEDTAVYYCALYDGYNVYAMDYWGQGTSVTVSS
VL: DIVMTQAAFSNPVTLGTSASISCRSSKNLLHSNGITYLYWYLQRPGQSPQLLIYRASTLASGVPNRFSGSESGTDFTLRISRVEAEDVGVYYCAQLLELPHTFGGGTKLEIK
notes: its making is not described; also called chimeric antibody c35
- binding result [1]: no binding (tested: 100 nM highest concentration)

- binding result (ENTPD2 protein): no binding (tested: about 66 nM)
B2: hu23.H5L5 (antibody, V domains shown)
VH: QVQLVQSGAEVKKPGASVKVSCKASGYNLKDTFLHWVRQAPGQGLEWMGRIDPANGNIKYDPKFQGRVTITADTSANTAYMELISLRSEDTAVYYCANSPYYYGSGYRIFDVWGQGTTVTVSS
VL: QIVLTQSPATLSLSPGERATLSCSAFSSVNYMHWYQQKPGQAPRLLIYTTSNLASGIPTRFSGSGSGTSYTLTISSLEPEDFAVYYCQQRSTYPFTFGQGTKLEIK
notes: humanized c23
- binding result [2]: no binding (tested: 100 nM highest concentration)

- Kd [3]: 0.24 nM
B3: mAb14 (antibody, V domains shown)
VH: EVKLEESGGGLVQPGGSMKLSCVASGFTFSKYWMNWVRQSPEKGLEWVAEIRLKSNKYGTHYAESVKGRFTISRDDSKNNVYLQMNNLRPEDTGIYYCTTQLDLYWFFDVWGAGTTVTVSS
VL: DIVMTQSPAILSVTPGDRVSLSCRASQSISDYLHWYQQKSHESPRLLIKYASQSISGIPSRFSGSGSGSNFTLSINSVEPEDVGVYFCQNGHSLPLTFGAGTKLELR
notes: mouse hybridoma antibody

Source: patent US20210388105A1 (ELPISCIENCE SUZHOU BIOPHARMA, published 2021)
